Data taken from the supplement of paper PMC12042874.
± gives the uncertainty stated by the source.

Experiment: amyloid nucleation score (Sup35N fusion, yeast selection) (log enrichment); library NNK3; higher = more nucleation; inactive = no reads after selection
Outline: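 Three technical output replicates were used for random libraries. Psi-negative yeast expressing peptides of 20 random codons fused to Sup35N were induced with 100 μM copper sulfate for 24 hours and grown 7 days at 30°C on medium lacking adenine and uracil, and input and output plasmid inserts were Illumina-sequenced, excluding sequences with under 100 input reads. The nucleation score is the DiMSum log enrichment of output over input reads, centred on the mode score of non-aggregating sequences.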

Substance | amyloid nucleation score
NYHTFSYCI | inactive
NYMVFNIGVGCFTISNTK | 3.14 ± 0.069
NYRWTWPMPTQEALTPNSDS | inactive
NYVGSSPGVGSRYTCLKSNV | inactive
NYYSGMRLSQNKKTST | 0.701 ± 0.11
PAELGVVSMCGFLGSAAYQE | inactive
PAGWGWSCCFDFLSSISKIY | inactive
PAPMSVFRHVNFFVKFSPSS | inactive
PASLTRDVTMCFQNRWDPLR | inactive
PATLQSPISSK | inactive
PATMFI | inactive
PAVPLQSNLRRETTFRAGCL | inactive
PCLSMRSNLRGYTWWSVGGY | 1.11 ± 0.14
PDKVWMYCQHICAVKMSLIC | inactive
PELCQCSHCNLLFLWTYYIA | -0.052 ± 0.98
PELVFPMLADRPVRAQKLPC | inactive
PETWDTRCGV | 0.03 ± 0.88
PFCVMDLSIKWGNMYYFLQT | inactive
PFFCTMITYNGLVYDIFWRG | inactive
PFHGSLDWSTTESAMT | inactive
PFNRVVVHSDAARGCRPCRP | inactive
PFRFVKNLCGATG | inactive
PFWSGMIPIIEDPISGAL | inactive
PGGKVANESMQSSTHDDPGR | inactive

Substance | amyloid nucleation score
PGKGKELSRASGSRATV | inactive
PGKKL | -0.453 ± 1.4
PGRGLMRLYCYRFEIKTTEP | 0.82 ± 0.23
PGSHNS | inactive
PGVTSMSLSYPGFWVSPS | inactive
PHGNVLVLYDKRVLSCVEWN | 0.428 ± 0.46
PHMQCLINF | inactive
PHSYA | inactive
PIAFQRKSSCIKSRESGSVR | inactive
PIFWGSSDDYLCRWTLTMCH | -0.3 ± 0.37
PIGGLEFNMGFRYRVIRVTM | -0.436 ± 1.7
PKEYTRAGNVSSRRGLFYHF | inactive
PKTIRDVYVDGEEHVHFRWR | inactive
PLCVWVWKLRVVFRRLYFEF | inactive
PLFSYLRHSTGCTFAIPNSE | inactive
PLGERRTPSYPVASLP | -0.223 ± 0.88
PLGSLHSATQRYVSRLGILS | inactive
PLHRSE | inactive
PLLIAVQWTMTAGCRSHKLL | -0.781 ± 2.5
PLNDNRRVPAISVFKECQTS | inactive
PLRPKLFFERNGSGYRQNRA | inactive
PLSTITDGLMRSLVTLVGHS | inactive
PLWTPDGPLIGVVFVLSNNV | 1.03 ± 0.15
PMKFQVFGVSQGVR | inactive

Substance | amyloid nucleation score
PMVISHMGLFFLKVGISR | inactive
PMYTMRVWLMMSS | inactive
PNAIILVQYTYIVGMRGGHS | 1.11 ± 0.08
PNALDRIYSG | inactive
PNCVISSLTFRWVIFSECEP | inactive
PNHELYM | inactive
PNLYIMYGAFKIVLHSPDWG | inactive
PNVLLIRVLIERSCKVGWNS | inactive
PPPCKYLPAEVGLLFKSSLG | inactive
PQDKRASACRVWAPNKNGRG | inactive
PRASYMGRSKL | inactive
PRDGVFLVKGDRPC | inactive
PRDNILTPQHV | inactive
PRFMKVRRWYSNLM | inactive
PRFYANRFTVLFLYNLDI | -0.227 ± 1.1
PRISQEDVFARTARVDLGLQ | inactive
PRNRSVGKMLTRINNSFSRA | inactive
PRRMHMGHAVFDIMGTLRSK | 0.9 ± 0.15
PRSCN | inactive
PRSVLINLLHRTHVCCRLFS | inactive
PRSVVMYNNFINWYKTHKYY | 1.62 ± 0.067
PSCSRSVTMWKSRNLFIQLA | inactive
PSDDYGHLVWLTICCNCLD | 1.6 ± 0.079
PSGTFFNSVVYGRWYKLKRK | -0.34 ± 0.93

Substance | amyloid nucleation score
PSSFKMY | inactive
PSTSVPTDMMRFSIYSLLRS | inactive
PSVFVRVLEKNRDLMMRTAS | inactive
PSVIFRDWFEKMWLDRISVV | inactive
PTELYFHPDI | inactive
PTHLCFLQFTVAIFVSGIRA | 0.851 ± 0.12
PTIHGVMGVEPMSYSLL | inactive
PTSKGYVVYKETWVLDRSKM | 1.07 ± 0.17
PTVQCC | inactive
PVDKCRCGGWNLSHLHKLSS | -0.615 ± 1.7
PVHGSKGPSGHVCRQCGFLM | inactive
PVMLGYGMGYSATVVKGCCL | inactive
PVQRTLVRAVSESFR | 0.899 ± 0.13
PVRIEYQ | inactive
PVRSR | inactive
PVSICQFIVSMANFDLCSQG | 1.93 ± 0.068
PVTVFWVTMTSWYVNIRG | inactive
PVYGRIKANLKMGLAGGSWV | inactive
PWALTMRNVLSKYMFGGGLR | inactive
PWDWWVDSACWRRRPVDDPR | inactive
PWKCTWFMALEVFRMYLRSF | inactive
PYARRMWHGVLVRDIGLYTR | inactive
PYCNRWFSDRGSWDVHRSWV | inactive
PYFQFGSSCE | inactive

Substance | amyloid nucleation score
PYGKFRLNPLD | 0.652 ± 0.17
PYLLMWSA | inactive
PYMWGFIKRWNRNCAGSFAL | inactive
QAKGIRYVGGLTWYNH | inactive
QCHSLYSWNDGWC | inactive
QCSDVLYY | inactive
QCSIFIIC | 2.41 ± 0.076
QCSWLCIWMGVYLTLILSCA | 0.805 ± 0.17
QCTASLEHHFVNNQDNASAW | inactive
QDAMSTEVEGTF | inactive
QDHDVSYSSCPGYSVMVMEG | -0.399 ± 0.8
QDLTLLCVSIWWKLGWSESR | inactive
QDTLYMLDPGG | -0.318 ± 0.7
QDYTWVFEVSWAPKGGNLNV | inactive
QERTKSFWPLLLALALPSDQ | inactive
QFIDRNVWLISSGFRTRFDI | inactive
QFLIVGFAYLPSLA | inactive
QFLKGDCRYLDPGMDLDRG | inactive
QFSSS | -1.13 ± 1.3
QFSVCCCRHLPLYMTKAVIA | inactive
QFVASELYVIGFTAVWLGCI | 0.902 ± 0.2
QGNCLFVKVG | inactive
